Measurements from the RNAGym collection of RNA variant scans (doi:10.7554/elife.80360).

B1: Twister Ribozyme (parent)
chain: AACACUGCCAAUGCCGGUCCCAAGCCCGGAUAAAAGUGGAGGGGGCGG

Variants of: B1
Experiment: self-cleavage, relative activity (ratio to wild type); higher = more cleavage; co-transcriptional

Point of comparison: G7U G47U, self-cleavage 0.0775. Against it:
- G7C G43C — higher, 0.0825
- C8A G16U — higher, 0.144
- C8U G44A — higher, 0.658
- C8U G44C — higher, 0.598
- C8A A22U — higher, 0.127
- G7U G17U — lower, 0.0401
- G7U C9U — lower, 0.0542
- C8G C20G — lower, 0.0475
- C8G C20A — higher, 0.11
- C8U C15A — higher, 0.318
- C8U C15U — higher, 0.768
- C8U C15G — lower, 0.0382
- G7C G13A — lower, 0.0687
- G7C G13C — lower, 0.0439
- C8A C21U — higher, 0.107
- G7U C21U — lower, 0.0705
- G7U C21G — lower, 0.0215
- G7U G39A — lower, 0.0425
- G7U G39C — lower, 0.0429
- C8G G38U — higher, 0.158
- C8G G38C — higher, 0.145
- C8A A11U — higher, 0.7
- C8A A11C — higher, 0.514
- C8A A11G — higher, 0.588
- C8A G41A — higher, 0.175
- G7C C26A — lower, 0.0601
- G7C C26G — lower, 0.0717
- C8U C20G — lower, 0.0649
- C8U C20U — higher, 0.308
- C8G G42A — higher, 0.131
- C8G G42C — higher, 0.221
- C8U G41U — higher, 0.117
- C8U G41C — higher, 0.0951
- C8G G39C — higher, 0.135
- C8G G39A — higher, 0.0973
- G7U A11C — higher, 0.0886
- G7U A11U — higher, 0.0842
- C8G G48U — higher, 0.263
- C8G G48C — higher, 0.272
- G7C A10C — higher, 0.0829
- G7C A10G — lower, 0.0662
- G7C A10U — lower, 0.0545
- G7C C8U — lower, 0.0597
- G7C C8G — lower, 0.0684
- G7U G16U — lower, 0.0559
- G7U G16A — lower, 0.0674
- G7U G47C — higher, 0.0954
- C8A C46A — higher, 0.167
- C8A C46G — higher, 0.353
- G7C G41C — lower, 0.0623
- G7C G41U — lower, 0.0511
- G7U G42U — higher, 0.0886
- G7C A32G — higher, 0.105
- G7C A32C — higher, 0.0784
- G7C C21U — lower, 0.0396
- G7C C21G — lower, 0.0593
- G7A G39U — higher, 0.15
- G7A G39C — higher, 0.141
- G7A G39A — higher, 0.171
- C8U G38A — higher, 0.572
- C8U G38U — higher, 0.481
- C8U G29C — higher, 0.117
- C8A A32G — higher, 0.331
- C8A A32C — higher, 0.42
- C8A U37C — higher, 0.144
- C8A U37G — higher, 0.3
- C8U C46G — higher, 0.567
- C8U C46U — higher, 0.726
- C8U C46A — higher, 0.5
- C8G A34C — higher, 0.121
- C8G A34U — higher, 0.553
- C8G A34G — higher, 0.276
- C8G U18C — lower, 0.0751
- C8G U18G — lower, 0.0605
- G7U A22U — lower, 0.0446
- G7U A22C — higher, 0.11
- G7U A22G — lower, 0.0616
- C8G A22G — lower, 0.0585
- C8G A22U — higher, 0.157
- C8G G13U — higher, 0.194
- C8U G24C — lower, 0.0664
- C8U G24A — higher, 0.772
- C8A C27U — higher, 0.101
- G7C U37C — lower, 0.0652
- G7U C26G — lower, 0.0462
- G7U C26A — lower, 0.0629
- G7C A30C — lower, 0.0728
- G7C A30U — lower, 0.0697
- C8A G24C — higher, 0.31
- C8A G24U — higher, 0.841
- G7C G38C — higher, 0.0787
- G7C G38U — lower, 0.071
- G7C G38A — higher, 0.0835
- G7C G42C — lower, 0.0454
- G7C G42A — lower, 0.062
- G7C A40C — lower, 0.0472
- G7C A40U — lower, 0.0764
- G7A U31C — higher, 0.451
- G7A U31G — higher, 0.647
- G7U C8G — higher, 0.114
- C8G G28A — higher, 0.0928
- G7C A35C — lower, 0.064
- G7C A35U — lower, 0.0701
- G7A G41U — higher, 0.11
- G7U G13C — lower, 0.0504
- G7U G13A — lower, 0.0636
- G7C A34U — lower, 0.067
- G7C A34C — higher, 0.118
- G7C A34G — lower, 0.061
- G7U G41C — higher, 0.111
- C8G G47C — higher, 0.186
- C8G G47A — higher, 0.208
- C8G G47U — higher, 0.142
- C8A G47U — higher, 0.156
- C8A G47A — higher, 0.26
- C8A G47C — higher, 0.169
- C8A G36A — higher, 0.101
- C8A G36C — higher, 0.145
- C8U C21A — lower, 0.0385
- C8U A10U — higher, 0.582
- C8U A10G — higher, 0.655
- C8U A10C — higher, 0.755
- C8G C25G — higher, 0.0929
- C8G C25A — higher, 0.0886
- G7A G45U — higher, 0.177
- G7C G28U — higher, 0.093
- G7C G28A — lower, 0.0408
- G7A U12G — higher, 0.381
- G7A U12C — higher, 0.455
- G7C G36C — lower, 0.0549
- C8U G28C — higher, 0.469
- C8U G28A — higher, 0.446
- C8U A11G — higher, 0.551
- C8A A34C — higher, 0.189
- C8A G28C — higher, 0.159
- C8A G28U — higher, 0.22
- C8A U31G — higher, 0.57
- G7U A30U — higher, 0.0836
- G7U A30C — lower, 0.0485
- G7A G38A — higher, 0.0994
- G7A G38C — higher, 0.348
- C8U A35G — higher, 0.559
- C8A A33U — higher, 0.28
- C8A A33G — higher, 0.228
- C8U U12C — higher, 0.753
- C8U U12A — higher, 0.825
- G7C U12C — higher, 0.0838
- C8G A23U — higher, 0.103
- C8G A23G — lower, 0.0516
- C8G C15U — higher, 0.534
- C8G C15A — higher, 0.0877
- C8U G13U — higher, 0.103
- C8A G13A — higher, 0.359
- C8A G13U — higher, 0.261
- C8U A32G — higher, 0.385
- C8U A32U — higher, 0.515
- C8G C14A — higher, 0.495
- C8G C14G — lower, 0.0524
- G7U A23U — lower, 0.0674
- C8G G36C — higher, 0.119
- G7C G45U — higher, 0.0816
- G7U C25A — higher, 0.224
- G7U C25U — higher, 0.302
- C8G A33C — higher, 0.203
- G7U U12A — the same, 0.0775
- G7U U12G — higher, 0.208
